Measurements taken from article PMC9597352.

Molecular target: T1, GST-Arl8b, Q9NVJ2
T1 chain: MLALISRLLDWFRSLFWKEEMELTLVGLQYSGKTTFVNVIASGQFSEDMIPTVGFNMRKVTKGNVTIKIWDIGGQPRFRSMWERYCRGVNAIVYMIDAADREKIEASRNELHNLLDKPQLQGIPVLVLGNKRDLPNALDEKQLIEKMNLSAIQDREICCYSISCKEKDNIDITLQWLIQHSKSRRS
Test: pull-down; GST-Arl8b on glutathione-agarose beads loaded with 20 mM GTP (TAP lysis buffer, 10 mM MgCl2, 30 min, 4°C), then HEK293T lysates of transfected cells, 2 h, 4°C; anti-FLAG blot
Settings: remark: other sources report otherwise

B1: RUFY3-FLAG, Q7L099 1-469 (natural protein)
chain: MSALTPPTDMPTPTTDKITQAAMETIYLCKFRVSMDGEWLCLRELDDISLTPDPEPTHEDPNYLMANERMNLMNMAKLSIKGLIESALNLGRTLDSDYAPLQQFFVVMEHCLKHGLKAKKTFLGQNKSFWGPLELVEKLVPEAAEITASVKDLPGLKTPVGRGRAWLRLALMQKKLSEYMKALINKKELLSEFYEPNALMMEEEGAIIAGLLVGLNVIDANFCMKGEDLDSQVGVIDFSMYLKDGNSSKGTEGDGQITAILDQKNYVEELNRHLNATVNNLQAKVDALEKSNTKLTEELAVANNRIITLQEEMERVKEESSYILESNRKGPKQDRTAEGQALSEARKHLKEETQLRLDVEKELEMQISMRQEMELAMKMLEKDVCEKQDALVSLRQQLDDLRALKHELAFKLQSSDLGVKQKSELNSRLEEKTNQMAATIKQLEQSEKDLVKQAKTLNSAANKLIPKHH
For B1, the pulldown relative to RUFY1 (densitometry, normalized to input) was 2 fold.
